The assay has as its target Human C3 (human, UniProt P01024 23-1663). Put plainly: cell-based or functional assay.

Starred links: 1 amine or outer side, 2 acyl side, 3 side chain; linkers in the order of their positions; H or OH if unused. Positions of bridges follow the written chain, without caps; N, C: chain ends. Non-standard residues stand in square brackets, D forms with d. Groups on a side chain read outwards from the residue. *: point of attachment. Trp(1-Me) = Cn1cc(C[C@H](N)C(=O)O)c2ccccc21; C18 diacid = O=C(O)CCCCCCCCCCCCCCCCC(=O)*; C16 diacid = O=C(O)CCCCCCCCCCCCCCC(=O)*; γGlu = O=C(O)[C@H](CCC(=O)[*:2])N[*:1]; hCys = N[C@@H](CCS)C(=O)O; AEEA = NCCOCCOCC(=O)O; Sar = CNCC(=O)O

Sequence of Human C3 (P01024 23-1663 limits assumed): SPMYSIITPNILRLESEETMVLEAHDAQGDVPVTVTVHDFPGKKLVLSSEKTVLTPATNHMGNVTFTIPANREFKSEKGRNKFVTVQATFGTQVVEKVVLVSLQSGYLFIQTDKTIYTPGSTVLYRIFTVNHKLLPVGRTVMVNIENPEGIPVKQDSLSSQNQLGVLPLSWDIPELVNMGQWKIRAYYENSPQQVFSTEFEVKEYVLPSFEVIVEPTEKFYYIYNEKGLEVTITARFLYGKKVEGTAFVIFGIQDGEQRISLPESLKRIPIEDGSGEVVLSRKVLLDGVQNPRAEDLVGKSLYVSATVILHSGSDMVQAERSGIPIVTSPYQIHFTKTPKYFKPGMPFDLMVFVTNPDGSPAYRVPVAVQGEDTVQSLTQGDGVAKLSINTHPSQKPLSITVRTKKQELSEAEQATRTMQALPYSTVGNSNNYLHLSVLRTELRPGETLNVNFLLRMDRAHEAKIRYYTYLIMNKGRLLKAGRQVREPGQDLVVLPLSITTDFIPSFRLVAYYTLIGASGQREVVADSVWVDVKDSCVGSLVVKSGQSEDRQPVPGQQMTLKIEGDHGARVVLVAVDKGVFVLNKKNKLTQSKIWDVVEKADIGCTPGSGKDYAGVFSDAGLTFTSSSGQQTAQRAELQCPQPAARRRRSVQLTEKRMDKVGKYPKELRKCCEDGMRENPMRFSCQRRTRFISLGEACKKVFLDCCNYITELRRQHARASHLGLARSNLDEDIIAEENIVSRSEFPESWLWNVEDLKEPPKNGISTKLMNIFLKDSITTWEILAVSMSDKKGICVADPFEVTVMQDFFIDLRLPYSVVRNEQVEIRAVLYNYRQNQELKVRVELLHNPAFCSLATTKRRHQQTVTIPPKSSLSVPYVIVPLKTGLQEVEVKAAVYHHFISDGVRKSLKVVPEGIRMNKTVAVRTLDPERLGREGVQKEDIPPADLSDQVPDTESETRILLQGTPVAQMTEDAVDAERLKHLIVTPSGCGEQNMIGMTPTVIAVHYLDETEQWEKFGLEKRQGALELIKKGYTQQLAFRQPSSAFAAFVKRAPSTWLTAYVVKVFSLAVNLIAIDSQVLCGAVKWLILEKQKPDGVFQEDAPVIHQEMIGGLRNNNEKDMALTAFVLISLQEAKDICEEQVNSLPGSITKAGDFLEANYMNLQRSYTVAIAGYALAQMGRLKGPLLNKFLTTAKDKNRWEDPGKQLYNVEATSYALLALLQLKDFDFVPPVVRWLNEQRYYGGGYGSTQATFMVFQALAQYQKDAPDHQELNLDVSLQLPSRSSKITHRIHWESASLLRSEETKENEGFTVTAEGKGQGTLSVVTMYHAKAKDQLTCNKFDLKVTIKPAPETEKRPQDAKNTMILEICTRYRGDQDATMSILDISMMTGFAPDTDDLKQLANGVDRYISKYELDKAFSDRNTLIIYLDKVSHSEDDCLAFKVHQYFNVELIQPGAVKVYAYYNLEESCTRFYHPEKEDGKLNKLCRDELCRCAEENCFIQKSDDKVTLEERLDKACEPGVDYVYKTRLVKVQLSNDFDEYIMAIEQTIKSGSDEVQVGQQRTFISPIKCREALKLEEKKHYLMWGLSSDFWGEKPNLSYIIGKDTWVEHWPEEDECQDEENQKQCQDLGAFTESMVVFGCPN

B1: Compound 138 (peptide)
peptide: Ac-SEFCI[Trp(1-Me)]QDWGEHRC[Sar]EGE[AEEA]K([γGlu-Gly-γGlu-C18 diacid])-NH2
modifications: disulfide 4-14
As to B1, the IC50[nM], inhibition of hemolysis is under 100 nM.

B2: Compound 155 (peptide)
peptide: Ac-GEFAI[Trp(1-Me)]QEWGEHR[hCys][Sar]EGE[AEEA]ESK([γGlu-Gly-γGlu-C18 diacid])-NH2
modifications: thioether 4-14
SMILES: CC[C@H](C)[C@@H]1NC(=O)[C@@H](NC(=O)[C@H](Cc2ccccc2)NC(=O)[C@H](CCC(=O)O)NC(=O)CNC(C)=O)CSCC[C@@H](C(=O)N(C)CC(=O)N[C@@H](CCC(=O)O)C(=O)NCC(=O)N[C@@H](CCC(=O)O)C(=O)NCCOCCOCC(=O)N[C@@H](CCC(=O)O)C(=O)N[C@@H](CO)C(=O)N[C@@H](CCCCNC(=O)CC[C@H](NC(=O)CNC(=O)CC[C@H](NC(=O)CCCCCCCCCCCCCCCCC(=O)O)C(=O)O)C(=O)O)C(N)=O)NC(=O)[C@H](CCCNC(=N)N)NC(=O)[C@H](Cc2c[nH]cn2)NC(=O)[C@H](CCC(=O)O)NC(=O)CNC(=O)[C@H](Cc2c[nH]c3ccccc23)NC(=O)[C@H](CCC(=O)O)NC(=O)[C@H](CCC(N)=O)NC(=O)[C@H](Cc2cn(C)c3ccccc23)NC1=O
On to B2, for which the IC50[nM], inhibition of hemolysis is under 100 nM.

B3: Compound 163 (peptide)
peptide: Ac-SEFAI[Trp(1-Me)]QDWGEHR[hCys]TEGE[AEEA]ESK([γGlu-C18 diacid])-OH
modifications: thioether 4-14
B3 yielded an IC50[nM], inhibition of hemolysis of under 100 nM.

B4: Compound 137 (peptide)
peptide: Ac-SEFCI[Trp(1-Me)]QDWGEHRCTEGE[8‑aminooctanoyl]EK([γGlu-Gly-γGlu-C18 diacid])-NH2
modifications: disulfide 4-14
Molecule B4 came in with an IC50[nM], inhibition of hemolysis of under 100 nM.

B5: Compound 160 (peptide)
peptide: Ac-SEFAI[Trp(1-Me)]QDWGEHR[hCys][Sar]EGE[AEEA][AEEA]K([γGlu-Gly-γGlu-C16 diacid])-NH2
modifications: thioether 4-14
In turn, B5 yielded an IC50[nM], inhibition of hemolysis of under 100 nM.

B6: Compound 136 (peptide)
peptide: Ac-SEFCI[Trp(1-Me)]QDWGEHRCTEGE[8‑aminooctanoyl]K([γGlu-Gly-γGlu-C18 diacid])-NH2
modifications: disulfide 4-14
B6 registered an IC50[nM], inhibition of hemolysis of under 100 nM.

B7: Compound 133 (peptide)
peptide: Ac-SEFCI[Trp(1-Me)]QDWGEHRCTEK[γGlu]GGGK([γGlu-Gly-γGlu-C18 diacid])-NH2
modifications: disulfide 4-14
SMILES: CC[C@H](C)[C@@H]1NC(=O)[C@@H](NC(=O)[C@H](Cc2ccccc2)NC(=O)[C@H](CCC(=O)O)NC(=O)[C@H](CO)NC(C)=O)CSSC[C@@H](C(=O)N[C@H](C(=O)N[C@@H](CCC(=O)O)C(=O)N[C@@H](CCCCN)C(=O)N[C@@H](CCC(=O)NCC(=O)NCC(=O)NCC(=O)N[C@@H](CCCCNC(=O)CC[C@H](NC(=O)CNC(=O)CC[C@H](NC(=O)CCCCCCCCCCCCCCCCC(=O)O)C(=O)O)C(=O)O)C(N)=O)C(=O)O)[C@@H](C)O)NC(=O)[C@H](CCCNC(=N)N)NC(=O)[C@H](Cc2c[nH]cn2)NC(=O)[C@H](CCC(=O)O)NC(=O)CNC(=O)[C@H](Cc2c[nH]c3ccccc23)NC(=O)[C@H](CC(=O)O)NC(=O)[C@H](CCC(N)=O)NC(=O)[C@H](Cc2cn(C)c3ccccc23)NC1=O
Regarding B7, the IC50[nM], inhibition of hemolysis was under 100 nM.

B8: Compound 162 (peptide)
peptide: Ac-SEFAI[Trp(1-Me)]QDW[Sar]EHR[hCys][Sar]E[AEEA][AEEA]K([γGlu-Gly-γGlu-C18 diacid])-OH
modifications: thioether 4-14
The molecule B8 came in with an IC50[nM], inhibition of hemolysis of under 100 nM.

B9: Compound 158 (peptide)
peptide: Ac-EFAI[Trp(1-Me)]QEWGEHR[hCys][Sar]EA[AEEA][AEEA]K([γGlu-Gly-γGlu-C18 diacid])-NH2
modifications: thioether 3-13
SMILES: CC[C@H](C)[C@@H]1NC(=O)[C@@H](NC(=O)[C@H](Cc2ccccc2)NC(=O)[C@H](CCC(=O)O)NC(C)=O)CSCC[C@@H](C(=O)N(C)CC(=O)N[C@@H](CCC(=O)O)C(=O)N[C@@H](C)C(=O)NCCOCCOCC(=O)NCCOCCOCC(=O)N[C@@H](CCCCNC(=O)CC[C@H](NC(=O)CNC(=O)CC[C@H](NC(=O)CCCCCCCCCCCCCCCCC(=O)O)C(=O)O)C(=O)O)C(N)=O)NC(=O)[C@H](CCCNC(=N)N)NC(=O)[C@H](Cc2c[nH]cn2)NC(=O)[C@H](CCC(=O)O)NC(=O)CNC(=O)[C@H](Cc2c[nH]c3ccccc23)NC(=O)[C@H](CCC(=O)O)NC(=O)[C@H](CCC(N)=O)NC(=O)[C@H](Cc2cn(C)c3ccccc23)NC1=O
In turn, B9 gave an IC50[nM], inhibition of hemolysis of under 250 nM.

B10: Compound 156 (peptide)
peptide: Ac-SEFAI[Trp(1-Me)]QDWGEHR[hCys]TEGE[AEEA][AEEA]K([γGlu-Gly-γGlu-C18 diacid])-NH2
modifications: thioether 4-14
SMILES: CC[C@H](C)[C@@H]1NC(=O)[C@@H](NC(=O)[C@H](Cc2ccccc2)NC(=O)[C@H](CCC(=O)O)NC(=O)[C@H](CO)NC(C)=O)CSCC[C@@H](C(=O)N[C@H](C(=O)N[C@@H](CCC(=O)O)C(=O)NCC(=O)N[C@@H](CCC(=O)O)C(=O)NCCOCCOCC(=O)NCCOCCOCC(=O)N[C@@H](CCCCNC(=O)CC[C@H](NC(=O)CNC(=O)CC[C@H](NC(=O)CCCCCCCCCCCCCCCCC(=O)O)C(=O)O)C(=O)O)C(N)=O)[C@@H](C)O)NC(=O)[C@H](CCCNC(=N)N)NC(=O)[C@H](Cc2c[nH]cn2)NC(=O)[C@H](CCC(=O)O)NC(=O)CNC(=O)[C@H](Cc2c[nH]c3ccccc23)NC(=O)[C@H](CC(=O)O)NC(=O)[C@H](CCC(N)=O)NC(=O)[C@H](Cc2cn(C)c3ccccc23)NC1=O
Molecule B10 showed an IC50[nM], inhibition of hemolysis of under 100 nM.

B11: Compound 143 (peptide)
peptide: Ac-SEFCI[Trp(1-Me)]QDWGEHRC[Sar]EGE[AEEA][AEEA][AEEA]K([γGlu-Gly-γGlu-C18 diacid])-NH2
modifications: disulfide 4-14
SMILES: CC[C@H](C)[C@@H]1NC(=O)[C@@H](NC(=O)[C@H](Cc2ccccc2)NC(=O)[C@H](CCC(=O)O)NC(=O)[C@H](CO)NC(C)=O)CSSC[C@@H](C(=O)N(C)CC(=O)N[C@@H](CCC(=O)O)C(=O)NCC(=O)N[C@@H](CCC(=O)O)C(=O)NCCOCCOCC(=O)NCCOCCOCC(=O)NCCOCCOCC(=O)N[C@@H](CCCCNC(=O)CC[C@H](NC(=O)CNC(=O)CC[C@H](NC(=O)CCCCCCCCCCCCCCCCC(=O)O)C(=O)O)C(=O)O)C(N)=O)NC(=O)[C@H](CCCNC(=N)N)NC(=O)[C@H](Cc2c[nH]cn2)NC(=O)[C@H](CCC(=O)O)NC(=O)CNC(=O)[C@H](Cc2c[nH]c3ccccc23)NC(=O)[C@H](CC(=O)O)NC(=O)[C@H](CCC(N)=O)NC(=O)[C@H](Cc2cn(C)c3ccccc23)NC1=O
B11 had an IC50[nM], inhibition of hemolysis of under 100 nM.

B12: Compound 159 (peptide)
peptide: EGSAYAIWQDWGEHRCGEKEK
modifications: not fully specified; N-acetyl; C-terminal amide; delta-cystathionine (Ctt2) thioether bridge A6-hCys16 (hCys written C); W8 is 1-Me-Trp; G17 is Sar; E20 is γGlu; K21 side chain bears [17-carboxy-heptadecanoyl][γGlu][Peg3][Peg3]
For B12, the IC50[nM], inhibition of hemolysis was under 100 nM.

B13: Compound 135 (peptide)
peptide: Ac-SEFCI[Trp(1-Me)]QDWGEHRCTGAESK([γGlu-Gly-γGlu-15‑carboxy‑hexadecanoyl])-NH2
modifications: disulfide 4-14
B13: the IC50[nM], inhibition of hemolysis was under 100 nM.

B14: Compound 134 (peptide)
peptide: Ac-EFCI[Trp(1-Me)]QDWGEHRCEGEK([γGlu-Gly-γGlu-C18 diacid])-NH2
modifications: disulfide 3-13
SMILES: CC[C@H](C)[C@@H]1NC(=O)[C@@H](NC(=O)[C@H](Cc2ccccc2)NC(=O)[C@H](CCC(=O)O)NC(C)=O)CSSC[C@@H](C(=O)N[C@@H](CCC(=O)O)C(=O)NCC(=O)N[C@@H](CCC(=O)O)C(=O)N[C@@H](CCCCNC(=O)CC[C@H](NC(=O)CNC(=O)CC[C@H](NC(=O)CCCCCCCCCCCCCCCCC(=O)O)C(=O)O)C(=O)O)C(N)=O)NC(=O)[C@H](CCCNC(=N)N)NC(=O)[C@H](Cc2c[nH]cn2)NC(=O)[C@H](CCC(=O)O)NC(=O)CNC(=O)[C@H](Cc2c[nH]c3ccccc23)NC(=O)[C@H](CC(=O)O)NC(=O)[C@H](CCC(N)=O)NC(=O)[C@H](Cc2cn(C)c3ccccc23)NC1=O
Regarding B14, the IC50[nM], inhibition of hemolysis was under 100 nM.

B15: Compound 132 (peptide)
peptide: Ac-SEFCI[Trp(1-Me)]QDWGEHRC[Sar]EK[γGlu]GGGK([γGlu-Gly-γGlu-C18 diacid])-NH2
modifications: disulfide 4-14
SMILES: CC[C@H](C)[C@@H]1NC(=O)[C@@H](NC(=O)[C@H](Cc2ccccc2)NC(=O)[C@H](CCC(=O)O)NC(=O)[C@H](CO)NC(C)=O)CSSC[C@@H](C(=O)N(C)CC(=O)N[C@@H](CCC(=O)O)C(=O)N[C@@H](CCCCN)C(=O)N[C@@H](CCC(=O)NCC(=O)NCC(=O)NCC(=O)N[C@@H](CCCCNC(=O)CC[C@H](NC(=O)CNC(=O)CC[C@H](NC(=O)CCCCCCCCCCCCCCCCC(=O)O)C(=O)O)C(=O)O)C(N)=O)C(=O)O)NC(=O)[C@H](CCCNC(=N)N)NC(=O)[C@H](Cc2c[nH]cn2)NC(=O)[C@H](CCC(=O)O)NC(=O)CNC(=O)[C@H](Cc2c[nH]c3ccccc23)NC(=O)[C@H](CC(=O)O)NC(=O)[C@H](CCC(N)=O)NC(=O)[C@H](Cc2cn(C)c3ccccc23)NC1=O
B15: the IC50[nM], inhibition of hemolysis was under 100 nM.

B16: Compound 145 (peptide)
peptide: Ac-EFCI[Trp(1-Me)]QDWGEHRC[Sar]EA[AEEA][AEEA]K([γGlu-Gly-γGlu-C18 diacid])-NH2
modifications: disulfide 3-13
SMILES: CC[C@H](C)[C@@H]1NC(=O)[C@@H](NC(=O)[C@H](Cc2ccccc2)NC(=O)[C@H](CCC(=O)O)NC(C)=O)CSSC[C@@H](C(=O)N(C)CC(=O)N[C@@H](CCC(=O)O)C(=O)N[C@@H](C)C(=O)NCCOCCOCC(=O)NCCOCCOCC(=O)N[C@@H](CCCCNC(=O)CC[C@H](NC(=O)CNC(=O)CC[C@H](NC(=O)CCCCCCCCCCCCCCCCC(=O)O)C(=O)O)C(=O)O)C(N)=O)NC(=O)[C@H](CCCNC(=N)N)NC(=O)[C@H](Cc2c[nH]cn2)NC(=O)[C@H](CCC(=O)O)NC(=O)CNC(=O)[C@H](Cc2c[nH]c3ccccc23)NC(=O)[C@H](CC(=O)O)NC(=O)[C@H](CCC(N)=O)NC(=O)[C@H](Cc2cn(C)c3ccccc23)NC1=O
For the molecule B16, the IC50[nM], inhibition of hemolysis was under 100 nM.

Source of the values: patent US20220306695A1, “COMPSTATIN ANALOGUES AND THEIR MEDICAL USES” (priority 2019, published 2022).
